In US20250282852A1 (SINOMAB BIOSCIENCE, published 2025):

Experiments:
CD33 on HMC-3 cells = target: T1, CD33 on HMC-3 cells (human, UniProt P20138 18-364); experiment: flow cytometry on fixed HMC-3 cells, 10 µg/mL, anti-human Fc Alexa Fluor 488; graded + (weakest) to +++++ (highest)
T1 construct: Native antigen on HMC-3
Description: The binding of different bispecific antibodies to HMC-3 cells is evaluated. Briefly, HMC-3 cells are seeded onto 6 well plate at a density of […]. After plating and culture for overnight, cells are detached with TrypLE™ Express enzyme. Cells are centrifuged at 300 g for 5 minutes. Cell pellets are washed once with phosphate buffer saline (pH7.4). Cells are fixed with 4% PFA in PBS for 5 minutes at room temperature. Cells are washed once with PBS. Bispecifc antibodies at a concentration of10 μg/mL are incubated with HMC-3 for 1 hour at room temperature. Cells are then washed twice with PBS. Cells are incubated with anti-human Fc Alexafluor 488-conjugated antibody diluted 1:1000 in PBS for 1 hour at room temperature. Cells are washed twice with PBS. Cell are centrifuged at 300 g for 5 minutes. Cell pellet is resuspended with 1% BSA in PBS and proceed to flow cytometry. FIG. 5 illustrates a representative result of HMC-3 cell binding by SM03-Adu.

[1] = target: T2, human CD22 protein (Sino Biological) (human); experiment: ELISA on coated human CD22 protein, anti-human Fc HRP detection
T2 construct: Bought protein coated on ELISA strips
Description: The binding of the different bispecific antibodies to their respective antigens is tested with standard ELISA method known to those skilled in the art. Using SM03-Adu as an example, 2 μg/mL of human CD22 protein (Sino Biological) or 5 μg/mL of Aβ oligomer are coated separately onto ELISA stripes (Santa Cruz) overnight at 4° C. or 1 hour at room temperature, respectively. ELISA stripes are blocked with 1% BSA in PBS. Stripes are washed 2 times with PBS. Bispecific antibodies are added in the following concentration, e.g. 10 μg/mL, 2 μg/mL, 0.4 μg/mL, 0.08 μg/mL, 0.016 μg/mL, 0.0032 μg/mL, 0.00064 μg/mL and incubated for 1 hour at room temperature. Stripes are washed 3 times with PBS. Stripes are incubated with anti-human Fc HRP-conjugated antibody diluted 1:6000 in PBS for 1 hour at room temperature. Fifty μL TMB (Invitrogem) is then added. After 30 minutes incubation at room temperature, 50 μL stop solution (2N H2SO4) is added to stop the reaction. Coloration are read by plate reader.

T1 sequence (P20138 18-364 limits assumed): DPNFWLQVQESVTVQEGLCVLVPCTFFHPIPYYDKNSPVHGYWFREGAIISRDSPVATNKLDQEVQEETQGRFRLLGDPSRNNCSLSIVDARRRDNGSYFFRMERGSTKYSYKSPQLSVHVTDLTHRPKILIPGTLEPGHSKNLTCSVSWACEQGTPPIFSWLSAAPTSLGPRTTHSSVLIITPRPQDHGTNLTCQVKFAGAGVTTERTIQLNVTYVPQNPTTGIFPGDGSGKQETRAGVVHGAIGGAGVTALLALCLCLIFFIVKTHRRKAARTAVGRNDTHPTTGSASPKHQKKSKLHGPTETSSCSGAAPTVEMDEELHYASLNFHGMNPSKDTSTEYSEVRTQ

Binder	binding result (CD33 on HMC-3 cells)	EC50 (read off the curve) [1]
Lin-Adu (bispecific antibody) heavy: not shown light: DIQMTQSPSSLSASVGDRVTITCRASESVDNYGISFMNWFQQKPGKAPKLLIYAASNQGSGVPSRFSGSGSGTDFTLTISSLQPDDFATYYCQQSKEVPWTFGQGTKVEIKRTVAAPSVFIFPPSDEQLKSGTASVVCLLNNFYPREAKVQWKVDNALQSGNSQESVTEQDSKDSTYSLSSTLTLSKADYEKHKVYACEVTHQGLSSPVTKSFNRGEC	binds	
SM06-Adu (bispecific antibody) heavy: not shown light: DIQLTQSPSSLSASVGDRVTISCRASQDISNYLNWYQQKPGKAPKLLIYYTSILHSGVPSRFSGSGSGTEFTLTISSLQPEDFATYFCQQGNTLPWTFGGGTKVEIKRTVAAPSVFIFPPSDEQLKSGTASVVCLLNNFYPREAKVQWKVDNALQSGNSQESVTEQDSKDSTYSLSSTLTLSKADYEKHKVYACEVTHQGLSSPVTKSFNRGEC		~0.1 µg/mL
